Data reported in publication PMC3795024, “A Structure-Guided Mutation in the Major Capsid Protein Retargets BK Polyomavirus” (PLoS Pathogens, 2013).

Legend:
[1] = target: BKPyV VP1 pentamer (30-300) H138A (BK polyomavirus (BKPyV)); experiment: SEC; gel filtration of purified mutant pentamers; data not shown
[2] = target: BKPyV VP1 pentamer (30-300) S274A (BK polyomavirus (BKPyV)); experiment: as above
[3] = target: BKPyV VP1 pentamer (30-300) F75V (BK polyomavirus (BKPyV)); experiment: as above
[4] = target: BKPyV VP1 pentamer (amino acids 30-300 of BKPyV VP1, His-tag cleaved) (BK polyomavirus (BKPyV)); experiment: crystal structure; sitting drop vapor diffusion at 20°C, 16–18% PEG 3,350, 0.1 M HEPES pH 7.5, 0.25 M LiCl, protein with 20 mM DTT; unliganded and soaked with 20 mM GD3 oligosaccharide
[5] = target: BKPyV VP1 pentamer (30-300) S274A/T276A (BK polyomavirus (BKPyV)); experiment: SEC; gel filtration of purified mutant pentamers; data not shown
[6] = target: BKPyV VP1 pentamer (30-300) L62W (BK polyomavirus (BKPyV)); experiment: as above
SV40 VP1 = target: T1, SV40 VP1 (Betapolyomavirus macacae, UniProt P03087); experiment: STD NMR; format: binding; conditions: 19-22 µM protein, 1 mM ligand, pH 7.5, 283 K, D2O
T1 construct: recombinant VP1 pentamer, detected with anti-poly-histidine antibody

[7] = target: BKPyV VP1 pentamer (30-300) T276A (BK polyomavirus (BKPyV)); experiment: SEC; gel filtration of purified mutant pentamers; data not shown
[8] = target: BKPyV VP1 pentamer (30-300) F75W (BK polyomavirus (BKPyV)); experiment: as above

Compound: BKPyV VP1 pentamer (30-300) H138A (domain or fragment)
- stoichiometry N [1]: 5

Compound: BKPyV VP1 pentamer (30-300) S274A (domain or fragment)
- stoichiometry N [2]: 5

Compound: BKPyV VP1 pentamer (30-300) F75V (domain or fragment)
- stoichiometry N [3]: 5

Compound: BKPyV VP1 pentamer (amino acids 30-300 of BKPyV VP1, His-tag cleaved) (domain or fragment)
- stoichiometry N [4]: 5

Compound: BKPyV VP1 pentamer (30-300) S274A/T276A (domain or fragment)
- stoichiometry N [5]: 5

Compound: BKPyV VP1 pentamer (30-300) L62W (domain or fragment)
- stoichiometry N [6]: 5

Compound: CC(=O)N[C@H]1[C@H](O[C@@H]2[C@H](O[C@]3(C(=O)O)C[C@H](O)[C@@H](NC(C)=O)[C@H]([C@H](O)[C@H](O)CO)O3)[C@@H](O)[C@H](O[C@H]3[C@H](O)[C@@H](O)C(O)O[C@@H]3CO)O[C@@H]2CO)O[C@H](CO)[C@H](O)[C@@H]1O[C@@H]1O[C@H](CO)[C@H](O)[C@H](O)[C@H]1O (stereo partly drawn) [GM1, GM1 oligosaccharide]
- STD NMR (SV40 VP1): as efficient as for the SV40 VP1-GM1 pair, which was included for comparison

Compound: BKPyV VP1 pentamer (30-300) T276A (domain or fragment)
- stoichiometry N [7]: 5

Compound: BKPyV VP1 pentamer (30-300) F75W (domain or fragment)
- stoichiometry N [8]: 5
